Data on eight molecules can be found in patent US20260055205A1 (published 2026).

Usually Kd stands for the free concentration of one partner at which half of the binding sites on the other are occupied at equilibrium, for simple one-to-one binding. Higher therefore signals weaker binding.

The test addresses T1, human CD3 epsilon (human, UniProt P07766 23-126, limits assumed).
T1 construct: also called huCD3e
As to the kind of experiment: Octet, crude lysate. The source says: To achieve this, Pool 1 was created, which included 74 paTCE molecules, each containing PSMA.5 and one of the 74 CD3.23 mutation variants. Single mutations were chosen based on analyses including CD3.23 PTE score analysis (using internal PTE algorithm v12) and structural analysis. Structural considerations included: possible contact disruption, anticipated steric clashes, side chain charge maintenance and possible pockets filling. Stability and affinity of the individually expressed molecules in the form of crude lysate was evaluated by Octet (ForteBio).
A general note: Biolayer interferometry detects binding as a change in optical thickness at a sensor tip.

T1 sequence (P07766 23-126 limits assumed): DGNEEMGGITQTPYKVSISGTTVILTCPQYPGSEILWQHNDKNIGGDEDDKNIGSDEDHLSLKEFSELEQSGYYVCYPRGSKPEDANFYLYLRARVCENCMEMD

B1: CD3.72 (bispecific antibody, V domains shown)
VH: EVQLLESGGGIVQPGGSLKLSCAASGFTFNTYAMNWVRQAPGKGLEWVARIRSKKNNYATYYADSVKDRFTISRDDSKNTVYLQMNNLKTEDTAVYYCVRHENFGNSYVSWFAHWGQGTLVTVSS
VL: ELVVTQEPSLTVSPGGTVTLTCRSSNGAVTSSNYANWVQQKPGQAPRGLIGGTNKRAPGTPARFSGSLLGGKAALTLSGVQPEDEAVYYCALWYPNLWVFGGGTKLTVL
notes: paTCE with PSMA.5; also called AC3401; Y52cK
For the molecule B1, the Kd was determined as 5.1 nM.

B2: CD3.80 (bispecific antibody, V domains shown)
VH: EVQLLESGGGIVQPGGSLKLSCAASGFTFNTYAMNWVRQAPGKGLEWVARIRSKYNNGATYYADSVKDRFTISRDDSKNTVYLQMNNLKTEDTAVYYCVRHENFGNSYVSWFAHWGQGTLVTVSS
VL: ELVVTQEPSLTVSPGGTVTLTCRSSNGAVTSSNYANWVQQKPGQAPRGLIGGTNKRAPGTPARFSGSLLGGKAALTLSGVQPEDEAVYYCALWYPNLWVFGGGTKLTVL
notes: paTCE with PSMA.5; also called AC3409; Y55G
On to B2, for which the Kd stood at 11.3 nM.

B3: CD3.74 (bispecific antibody, V domains shown)
VH: EVQLLESGGGIVQPGGSLKLSCAASGFTFNTYAMNWVRQAPGKGLEWVARIRSKTNNYATYYADSVKDRFTISRDDSKNTVYLQMNNLKTEDTAVYYCVRHENFGNSYVSWFAHWGQGTLVTVSS
VL: ELVVTQEPSLTVSPGGTVTLTCRSSNGAVTSSNYANWVQQKPGQAPRGLIGGTNKRAPGTPARFSGSLLGGKAALTLSGVQPEDEAVYYCALWYPNLWVFGGGTKLTVL
notes: paTCE with PSMA.5; also called AC3403; Y52cT
B3 gave a Kd of 11.1 nM.

B4: CD3.73 (bispecific antibody, V domains shown)
VH: EVQLLESGGGIVQPGGSLKLSCAASGFTFNTYAMNWVRQAPGKGLEWVARIRSKPNNYATYYADSVKDRFTISRDDSKNTVYLQMNNLKTEDTAVYYCVRHENFGNSYVSWFAHWGQGTLVTVSS
VL: ELVVTQEPSLTVSPGGTVTLTCRSSNGAVTSSNYANWVQQKPGQAPRGLIGGTNKRAPGTPARFSGSLLGGKAALTLSGVQPEDEAVYYCALWYPNLWVFGGGTKLTVL
notes: paTCE with PSMA.5; also called AC3402; Y52cP
The molecule B4 showed a Kd of 33.1 nM.

B5: CD3.75 (bispecific antibody, V domains shown)
VH: EVQLLESGGGIVQPGGSLKLSCAASGFTFNTYAMNWVRQAPGKGLEWVARIRSKWNNYATYYADSVKDRFTISRDDSKNTVYLQMNNLKTEDTAVYYCVRHENFGNSYVSWFAHWGQGTLVTVSS
VL: ELVVTQEPSLTVSPGGTVTLTCRSSNGAVTSSNYANWVQQKPGQAPRGLIGGTNKRAPGTPARFSGSLLGGKAALTLSGVQPEDEAVYYCALWYPNLWVFGGGTKLTVL
notes: paTCE with PSMA.5; also called AC3404; Y52cW
For the molecule B5, the affinity, expressed as Kd, was 10.5 nM.

B6: CD3.78 (bispecific antibody, V domains shown)
VH: EVQLLESGGGIVQPGGSLKLSCAASGFTFNTYAMNWVRQAPGKGLEWVARIRSKYNDYATYYADSVKDRFTISRDDSKNTVYLQMNNLKTEDTAVYYCVRHENFGNSYVSWFAHWGQGTLVTVSS
VL: ELVVTQEPSLTVSPGGTVTLTCRSSNGAVTSSNYANWVQQKPGQAPRGLIGGTNKRAPGTPARFSGSLLGGKAALTLSGVQPEDEAVYYCALWYPNLWVFGGGTKLTVL
notes: paTCE with PSMA.5; also called AC3407; N54D
B6 came in with a Kd of 7.4 nM.

B7: CD3.77 (bispecific antibody, V domains shown)
VH: EVQLLESGGGIVQPGGSLKLSCAASGFTFNTYAMNWVRQAPGKGLEWVARIRSKYENYATYYADSVKDRFTISRDDSKNTVYLQMNNLKTEDTAVYYCVRHENFGNSYVSWFAHWGQGTLVTVSS
VL: ELVVTQEPSLTVSPGGTVTLTCRSSNGAVTSSNYANWVQQKPGQAPRGLIGGTNKRAPGTPARFSGSLLGGKAALTLSGVQPEDEAVYYCALWYPNLWVFGGGTKLTVL
notes: paTCE with PSMA.5; also called AC3406; N53E
The molecule B7 had a Kd of 575 nM.

B8: CD3.79 (bispecific antibody, V domains shown)
VH: EVQLLESGGGIVQPGGSLKLSCAASGFTFNTYAMNWVRQAPGKGLEWVARIRSKYNEYATYYADSVKDRFTISRDDSKNTVYLQMNNLKTEDTAVYYCVRHENFGNSYVSWFAHWGQGTLVTVSS
VL: ELVVTQEPSLTVSPGGTVTLTCRSSNGAVTSSNYANWVQQKPGQAPRGLIGGTNKRAPGTPARFSGSLLGGKAALTLSGVQPEDEAVYYCALWYPNLWVFGGGTKLTVL
notes: paTCE with PSMA.5; also called AC3408; N54E
In turn, B8 came in with a Kd of 8.3 nM.
